Ends that are not written are not given here.
Columns and labels:
A1PI [1] = molecular target: T1, A1PI (Homo sapiens, UniProt P01009); test: Capture and elution of active A1PI with 2M urea buffer (elastase inhibition activity assay and immunonephelometry); type: binding; details: 4° C.; for Mass A1PI in Urea Eluate (mg), Activity / Mass A1PI in Urea Eluate (mg), Nephelometry: 1 mg A1PI, eluted with 2M urea, pH 6; for Mass A1PI in Urea Eluate (mg), Activity: elastase inhibition activity assay; for Mass A1PI in Urea Eluate (mg), Nephelometry: immunonephelometry; for Specific Activity: mass of A1PI by activity assay relative to immunonephelometry, urea eluate
T1 construct: Human plasma is currently the only approved source of therapeutic AlPI

Immunoglobulin A (IgA) = test: Purification from Effluent II+III, IgA mass balance; type: binding, human; details: 1 ml Eff. II+III, 4° C.; for Mass Protein per Eluate Fraction, 1M NaCl / Mass Protein per Eluate Fraction, 2% Acetic Acid / Mass Protein per Eluate Fraction, Flow: * as in Tables 4, 5 (below detection limit)
How it was run: (§1)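 Run at 4° C: Effluent II+III (1 ml, 20% ethanol) loaded with a 10 min residence. Elution at 865 μl/min, in sequence 1M NaCl, 3M NaCl, 2% acetic acid; A1PI, IgA, IgG and haptoglobin accounted for in each fraction.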

A1PI [2] = molecular target: T1, A1PI; test: A1PI purification from 5 mg hSA + 1 mg A1PI on peptide column, A1PI mass balance; type: binding; details: A1PI, 5 mg hSA + 1 mg A1PI; for Percent Eluted by Fraction, 1M NaCl / Percent Eluted by Fraction, 2% Ac. Acid / Percent Eluted by Fraction, 3M NaCl / Percent Eluted by Fraction, Flow: relative to total eluted
How it was run: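 Peptides on A-Totda-Toyopearl resin (0.1 mmole/g) in 0.4×5 cm columns; 5 mg hSA + 1 mg A1PI loaded at 4 °C or 20 °C with 10 min residence (17 μl/min). Steps of 1M and 3M NaCl, then 2% acetic acid; fractions quantified by immunonephelometry for mass balance.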

A1PI [3] = molecular target: T1, A1PI; test: Purification of A1PI from Effluent II+III on peptide column, A1PI mass balance; type: binding; details: A1PI, 1 ml Eff. II+III, 4° C.; for Mass Protein per Eluate Fraction, 1M NaCl / Mass Protein per Eluate Fraction, 2% Acetic Acid / Mass Protein per Eluate Fraction, Flow: * as in Tables 4, 5 (below detection limit)
How it was run: as §1

Immunoglobulin G (IgG) = test: Purification from Effluent II+III, IgG mass balance; type: binding, human; details: 1 ml Eff. II+III, 4° C.
How it was run: as §1

A1PI [4] = molecular target: T1, A1PI; test: A1PI binding on peptide-resin column, injection of 1 mg A1PI in equilibration buffer; details: 1 mg A1PI in equilibration buffer; for Percent A1PI Eluted by Fraction Based on Absorbance at 280 nm, 1M NaCl / Percent A1PI Eluted by Fraction Based on Absorbance at 280 nm, 2% Acetic Acid / Percent A1PI Eluted by Fraction Based on Absorbance at 280 nm, Flowthrough: 4° C.; for Percent A1PI Eluted by Fraction, 1M NaCl / Percent A1PI Eluted by Fraction, 2% Acetic Acid / Percent A1PI Eluted by Fraction, Flowthrough: 20° C.
How it was run: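 Peptides synthesized on A-Totda-Toyopearl chelate resin (0.1 mmole/g) packed in 0.4×5 cm columns; 1 mg A1PI injected in equilibration buffer at 4 °C or 20 °C, 865 or 523 μl/min. Flowthrough, 1M/3M NaCl washes and 2% acetic acid eluate quantified by A280 or immunonephelometry as percent of total eluted.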

[5] = molecular target: T2, apolipoprotein alpha-1 (Apo A-1) (Homo sapiens, UniProt P02647); test: Purification from Effluent II+III, Apo A-1 mass balance; type: binding; details: 1 ml Eff. II+III, 4° C.; for Mass Protein per Eluate Fraction, 2% Acetic Acid: * as in Tables 4, 5 (below detection limit)
T2 construct: Eff; II+III is a process intermediate in the Cohn plasma fractionation process; tissue Bayer Corporation (Clayton, N.C.); host or cells: plasma fraction: Cohn Effluent II+III
How it was run: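 Mass balance per protein was determined over the load and each step eluate (1M NaCl, 3M NaCl, 2% acetic acid) of peptide columns challenged with 1 ml Effluent II+III. The feed contained 20% ethanol and 20-25 mg/ml hSA, the flow was 865 μl/min after a 10 min residence, and the temperature was 4° C.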

[6] = 20° C., * Below detection limit
[7] = * as in Tables 4, 5 (below detection limit)

T2 sequence (P02647 19-267): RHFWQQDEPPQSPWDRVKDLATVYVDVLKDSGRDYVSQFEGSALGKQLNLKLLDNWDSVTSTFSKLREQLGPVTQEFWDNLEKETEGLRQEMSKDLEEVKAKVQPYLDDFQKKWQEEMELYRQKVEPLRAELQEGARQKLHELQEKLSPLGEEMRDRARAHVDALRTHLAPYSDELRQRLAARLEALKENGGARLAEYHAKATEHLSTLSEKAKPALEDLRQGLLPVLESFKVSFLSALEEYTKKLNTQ
T1 sequence (P01009 25-418): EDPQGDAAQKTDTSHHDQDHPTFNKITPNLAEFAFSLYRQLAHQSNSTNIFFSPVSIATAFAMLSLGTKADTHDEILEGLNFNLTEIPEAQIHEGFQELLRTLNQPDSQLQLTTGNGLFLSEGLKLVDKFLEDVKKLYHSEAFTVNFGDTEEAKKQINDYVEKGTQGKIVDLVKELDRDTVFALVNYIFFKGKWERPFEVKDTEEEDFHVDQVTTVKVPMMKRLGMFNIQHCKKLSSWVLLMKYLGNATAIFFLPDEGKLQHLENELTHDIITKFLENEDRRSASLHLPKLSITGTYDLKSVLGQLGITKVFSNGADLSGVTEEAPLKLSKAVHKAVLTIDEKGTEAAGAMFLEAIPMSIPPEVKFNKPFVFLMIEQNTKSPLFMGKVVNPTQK

RAFWYI
Mass A1PI in Urea Eluate (mg), Activity (A1PI [1]): 0.62 mg
Mass A1PI in Urea Eluate (mg), Nephelometry (A1PI [1]): 0.71 mg
Specific Activity (A1PI [1]): 0.87 mg/mg
Percent Eluted by Fraction, 1M NaCl (Immunoglobulin A (IgA)): 36%
Percent Eluted by Fraction, 2% Acetic Acid (Immunoglobulin A (IgA)): 29%
Percent Eluted by Fraction, 3M NaCl (Immunoglobulin A (IgA)): 0%
Percent Eluted by Fraction, Flow (Immunoglobulin A (IgA)): 35%
Mass Protein per Eluate Fraction, 1M NaCl (Immunoglobulin A (IgA)): 0.12 mg
Mass Protein per Eluate Fraction, 2% Acetic Acid (Immunoglobulin A (IgA)): 0.10 mg
Mass Protein per Eluate Fraction, Flow (Immunoglobulin A (IgA)): 0.12 mg
Mass Protein per Eluate Fraction, 1M NaCl (A1PI [2]; 4° C., * Below detection limit): 0.19 mg
Mass Protein per Eluate Fraction, 2% Ac. Acid (A1PI [2]; 4° C., * Below detection limit): 0.45 mg
Mass Protein per Eluate Fraction, Flow (A1PI [2]; 4° C., * Below detection limit): 0.26 mg
Percent Eluted by Fraction, 1M NaCl (A1PI [2]; 4° C.): 21%
Percent Eluted by Fraction, 2% Ac. Acid (A1PI [2]; 4° C.): 50%
Percent Eluted by Fraction, 3M NaCl (A1PI [2]; 4° C.): 0%
Percent Eluted by Fraction, Flow (A1PI [2]; 4° C.): 29%
Mass Protein per Eluate Fraction, 1M NaCl (A1PI [2]; [6]): 0.14 mg
Mass Protein per Eluate Fraction, 2% Ac. Acid (A1PI [2]; [6]): 0.54 mg
Mass Protein per Eluate Fraction, Flow (A1PI [2]; [6]): 0.09 mg
Percent Eluted by Fraction, 1M NaCl (A1PI [2]; 20° C.): 19%
Percent Eluted by Fraction, 2% Ac. Acid (A1PI [2]; 20° C.): 70%
Percent Eluted by Fraction, 3M NaCl (A1PI [2]; 20° C.): 0%
Percent Eluted by Fraction, Flow (A1PI [2]; 20° C.): 11%
Percent Eluted by Fraction, 1M NaCl (A1PI [3]): 4%
Percent Eluted by Fraction, 2% Acetic Acid (A1PI [3]): 80%
Percent Eluted by Fraction, 3M NaCl (A1PI [3]): 0%
Percent Eluted by Fraction, Flow (A1PI [3]): 17%
Mass Protein per Eluate Fraction, 1M NaCl (A1PI [3]): 0.04 mg
Mass Protein per Eluate Fraction, 2% Acetic Acid (A1PI [3]): 0.87 mg
Mass Protein per Eluate Fraction, Flow (A1PI [3]): 0.18 mg
Percent Eluted by Fraction, 1M NaCl (Immunoglobulin G (IgG)): 9%
Percent Eluted by Fraction, 2% Acetic Acid (Immunoglobulin G (IgG)): 0%
Percent Eluted by Fraction, 3M NaCl (Immunoglobulin G (IgG)): 0%
Percent Eluted by Fraction, Flow (Immunoglobulin G (IgG)): 91%
Mass Protein per Eluate Fraction, 1M NaCl (Immunoglobulin G (IgG); [7]): 0.02 mg
Mass Protein per Eluate Fraction, Flow (Immunoglobulin G (IgG); [7]): 0.24 mg
Percent A1PI Eluted by Fraction Based on Absorbance at 280 nm, 1M NaCl (A1PI [4]): 55%
Percent A1PI Eluted by Fraction Based on Absorbance at 280 nm, 2% Acetic Acid (A1PI [4]): 45%
Percent A1PI Eluted by Fraction Based on Absorbance at 280 nm, Flowthrough (A1PI [4]): 0%
Percent A1PI Eluted by Fraction, 1M NaCl (A1PI [4]): 72%
Percent A1PI Eluted by Fraction, 2% Acetic Acid (A1PI [4]): 28%
Percent A1PI Eluted by Fraction, Flowthrough (A1PI [4]): 0%
Percent Eluted by Fraction, 1M NaCl [5]: 0%
Percent Eluted by Fraction, 2% Acetic Acid [5]: 100%
Percent Eluted by Fraction, 3M NaCl [5]: 0%
Percent Eluted by Fraction, Flow [5]: 0%
Mass Protein per Eluate Fraction, 2% Acetic Acid [5]: 0.29 mg

RFIYYT
Mass A1PI in Urea Eluate (mg), Activity (A1PI [1]): 0.67 mg
Mass A1PI in Urea Eluate (mg), Nephelometry (A1PI [1]): 0.80 mg
Specific Activity (A1PI [1]): 0.84 mg/mg
Percent Eluted by Fraction, 1M NaCl (Immunoglobulin A (IgA)): 31%
Percent Eluted by Fraction, 2% Acetic Acid (Immunoglobulin A (IgA)): 38%
Percent Eluted by Fraction, 3M NaCl (Immunoglobulin A (IgA)): 0%
Percent Eluted by Fraction, Flow (Immunoglobulin A (IgA)): 31%
Mass Protein per Eluate Fraction, 1M NaCl (Immunoglobulin A (IgA)): 0.10 mg
Mass Protein per Eluate Fraction, 2% Acetic Acid (Immunoglobulin A (IgA)): 0.12 mg
Mass Protein per Eluate Fraction, Flow (Immunoglobulin A (IgA)): 0.10 mg
Mass Protein per Eluate Fraction, 1M NaCl (A1PI [2]; 4° C., * Below detection limit): 0.27 mg
Mass Protein per Eluate Fraction, 2% Ac. Acid (A1PI [2]; 4° C., * Below detection limit): 0.64 mg
Mass Protein per Eluate Fraction, 3M NaCl (A1PI [2]; 4° C., * Below detection limit): 0.04 mg
Mass Protein per Eluate Fraction, Flow (A1PI [2]; 4° C., * Below detection limit): 0.03 mg
Percent Eluted by Fraction, 1M NaCl (A1PI [2]; 4° C.): 27%
Percent Eluted by Fraction, 2% Ac. Acid (A1PI [2]; 4° C.): 66%
Percent Eluted by Fraction, 3M NaCl (A1PI [2]; 4° C.): 4%
Percent Eluted by Fraction, Flow (A1PI [2]; 4° C.): 3%
Mass Protein per Eluate Fraction, 1M NaCl (A1PI [2]; [6]): 0.11 mg
Mass Protein per Eluate Fraction, 2% Ac. Acid (A1PI [2]; [6]): 0.44 mg
Mass Protein per Eluate Fraction, Flow (A1PI [2]; [6]): 0.29 mg
Percent Eluted by Fraction, 1M NaCl (A1PI [2]; 20° C.): 12%
Percent Eluted by Fraction, 2% Ac. Acid (A1PI [2]; 20° C.): 53%
Percent Eluted by Fraction, 3M NaCl (A1PI [2]; 20° C.): 0%
Percent Eluted by Fraction, Flow (A1PI [2]; 20° C.): 35%
Percent Eluted by Fraction, 1M NaCl (A1PI [3]): 5%
Percent Eluted by Fraction, 2% Acetic Acid (A1PI [3]): 80%
Percent Eluted by Fraction, 3M NaCl (A1PI [3]): 0%
Percent Eluted by Fraction, Flow (A1PI [3]): 15%
Mass Protein per Eluate Fraction, 1M NaCl (A1PI [3]): 0.05 mg
Mass Protein per Eluate Fraction, 2% Acetic Acid (A1PI [3]): 0.81 mg
Mass Protein per Eluate Fraction, Flow (A1PI [3]): 0.15 mg
Percent Eluted by Fraction, 1M NaCl (Immunoglobulin G (IgG)): 7%
Percent Eluted by Fraction, 2% Acetic Acid (Immunoglobulin G (IgG)): 7%
Percent Eluted by Fraction, 3M NaCl (Immunoglobulin G (IgG)): 0%
Percent Eluted by Fraction, Flow (Immunoglobulin G (IgG)): 86%
Mass Protein per Eluate Fraction, 1M NaCl (Immunoglobulin G (IgG); [7]): 0.02 mg
Mass Protein per Eluate Fraction, 2% Acetic Acid (Immunoglobulin G (IgG); [7]): 0.02 mg
Mass Protein per Eluate Fraction, Flow (Immunoglobulin G (IgG); [7]): 0.23 mg
Percent A1PI Eluted by Fraction Based on Absorbance at 280 nm, 1M NaCl (A1PI [4]): 57%
Percent A1PI Eluted by Fraction Based on Absorbance at 280 nm, 2% Acetic Acid (A1PI [4]): 43%
Percent A1PI Eluted by Fraction Based on Absorbance at 280 nm, Flowthrough (A1PI [4]): 0%
Percent A1PI Eluted by Fraction, 1M NaCl (A1PI [4]): 64%
Percent A1PI Eluted by Fraction, 2% Acetic Acid (A1PI [4]): 36%
Percent A1PI Eluted by Fraction, Flowthrough (A1PI [4]): 0%
Percent Eluted by Fraction, 1M NaCl [5]: 0%
Percent Eluted by Fraction, 2% Acetic Acid [5]: 100%
Percent Eluted by Fraction, 3M NaCl [5]: 0%
Percent Eluted by Fraction, Flow [5]: 0%
Mass Protein per Eluate Fraction, 2% Acetic Acid [5]: 0.37 mg

Reference: US5985836A, “Alpha-1 proteinase inhibitor binding peptides” (Bayer Corporation, priority 1998, dated 1999)
